Reference: patent US10689452 (UNIVERSIT T STUTTGART, dated 2020)

Legend:
[1] = target: T1, human TNFR1 on cells (HT1080, HeLa, Kym-1) (human, UniProt P19438 30-455); assay: cell-based or functional assay
T1 sequence (looked up): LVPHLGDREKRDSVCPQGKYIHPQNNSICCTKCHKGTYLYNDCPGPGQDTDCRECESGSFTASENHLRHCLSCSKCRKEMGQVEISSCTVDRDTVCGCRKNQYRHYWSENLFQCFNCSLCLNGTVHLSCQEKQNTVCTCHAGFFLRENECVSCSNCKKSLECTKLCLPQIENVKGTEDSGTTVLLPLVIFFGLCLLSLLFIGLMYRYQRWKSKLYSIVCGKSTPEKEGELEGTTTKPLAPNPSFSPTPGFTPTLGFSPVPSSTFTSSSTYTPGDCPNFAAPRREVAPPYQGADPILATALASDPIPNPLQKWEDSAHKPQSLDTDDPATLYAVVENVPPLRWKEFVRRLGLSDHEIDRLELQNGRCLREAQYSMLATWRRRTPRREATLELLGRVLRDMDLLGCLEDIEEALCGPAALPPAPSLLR

[2] = target: T1, human TNFR1 on cells (HT1080, HeLa, …); assay: cell-based or functional assay; remark: listed apart in the source
[3] = target: T2, human TNFR1-Fc fusion protein (human, UniProt P19438 29-211); assay: QCM, human TNFR1-Fc immobilised
T2 construct: range 29-211; Made in stably transfected HEK293 cells; coated on ELISA plates or immobilised on QCM chips; also called huTNFR1-Fc; human TNFR-Fc; not shown: Fc part from vector pSecTagL1-Fc
T2 sequence (looked up): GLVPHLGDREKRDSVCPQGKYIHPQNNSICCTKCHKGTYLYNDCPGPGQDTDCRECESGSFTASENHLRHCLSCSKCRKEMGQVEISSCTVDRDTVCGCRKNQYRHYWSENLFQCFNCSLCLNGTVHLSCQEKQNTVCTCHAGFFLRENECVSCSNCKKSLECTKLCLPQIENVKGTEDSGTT
Procedure: (§1) Real-time binding dynamics in protein-protein interactions were determined by quartz crystal microbalance measurements (A-100 C-Fast or Cell-200 C-Fast, Attana, Stockholm, Sweden). One of the binding partners (ligand, e.g. TNFR1-Fc) was chemically immobilized on a carboxyl sensor chip according to the manufacturer's protocol at different densities (nearly 200 Hz in the case of saturating conditions to confirm previously published results and 50-100 Hz, in particular at about 50 Hz, to establish conditions of lower receptor density, better resembling the situation on the cellular surface). Binding experiments were performed with samples (analyte) diluted in PBST (PBS, 0.1% Tween 20) at pH 7.4 with a flow rate of 25 µl/min at 37° C. The chip was regenerated with 25 µl 5 mM NaOH or 20 mM glycine, pH 2.0. Every third measurement, an injection of running buffer was measured which was subtracted from the binding curve. Data were collected using the software provided by Attana for the particular device and analyzed by Attaché Office Evaluation software (Attana, Stockholm, Sweden) and TraceDrawe (ridgview instruments, Vange, Sweden).

[4] = target: T2, human TNFR1-Fc fusion protein; assay: ELISA, human TNFR1-Fc
[5] = target: T2, human TNFR1-Fc fusion protein; assay: QCM
[6] = target: T2, human TNFR1-Fc fusion protein; assay: ELISA, human TNFR1-Fc; remark: listed apart in the source
[7] = target: T2, human TNFR1-Fc fusion protein; assay: QCM, soluble scFv, moderate receptor density
Procedure: as §1

[8] = target: T2, human TNFR1-Fc fusion protein; assay: phage ELISA on human TNFR1
[9] = target: T1, human TNFR1 on cells (HT1080, HeLa, …); assay: cell-based or functional assay; remark: listed apart in the source
[10] = target: T2, human TNFR1-Fc fusion protein; assay: standard ELISA, human TNFR1-Fc
Procedure: (§2) FIG. 1. […] Applied were triplicates of five concentrations between 3.9 nM and 62.5 nM.
(§3) Microtiter plates were coated with 100 µl of the indicated protein (1 µg/ml in PBS, see Table 3.3) and incubated at 4° C. over night. The residual binding sites were blocked with 2% MPBS (skim milk in PBS, 200 µl per well) at room temperature for 2 hours and subsequently washed twice with PBS. 100 µl of the samples diluted in 2% MPBS were incubated at room temperature for 1 hour prior to the last incubation step with 100 µl of the HRP conjugated detection antibodies in 2% MPBS. In the case of competition experiments, both analyzed protein samples were prepared individually (either titrated or diluted to a single concentration) and mixed before they were applied to the plate. Bound protein was detected with 100 µl TMB substrate solution, the HRP-reaction was stopped by the addition of 50 µl 1 M H2SO4 and the absorption at the wavelength of 450 nm was measured using the Infinite microtiter plate reader (TECAN, Maennedorf, Switzerland). Between each incubation step and in advance of the detection, the plates were washed three times with PBST and twice with PBS.

[11] = target: T2, human TNFR1-Fc fusion protein; assay: QCM, human TNFR1-Fc immobilised, low receptor density (48 Hz)
Procedure: as §1

[12] = target: T2, human TNFR1-Fc fusion protein; assay: QCM, human TNFR1-Fc immobilised, high receptor density (195 Hz)
Procedure: as §2, §1

[13] = target: T2, human TNFR1-Fc fusion protein; assay: ELISA, human TNFR1-Fc; remark: listed apart in the source
[14] = target: T3, mouse TNFR1-Fc fusion protein (mouse, UniProt P25118 30-212); assay: ELISA on coated receptor-Fc fusion proteins, one antibody concentration (not given on the sheet)
T3 construct: range 30-212; also called moR1; not shown: Fc part from vector pSecTagL1-Fc
T3 sequence (looked up): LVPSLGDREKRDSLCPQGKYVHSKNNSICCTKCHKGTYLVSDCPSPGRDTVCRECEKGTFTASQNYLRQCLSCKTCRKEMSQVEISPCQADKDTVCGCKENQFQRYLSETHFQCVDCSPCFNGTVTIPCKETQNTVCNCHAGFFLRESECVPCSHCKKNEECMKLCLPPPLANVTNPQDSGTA
Procedure: (§4) FIG. 12. Species selectivity of scFv13.7 derivatives. […] Presented are mean and SD of two individual experiments.
as §3

[15] = target: T4, mouse TNFR2-Fc fusion protein (mouse, UniProt P25119 23-258); assay: as above
T4 construct: range 23-258; not shown: Fc part from vector pSecTagL1-Fc
T4 sequence (looked up): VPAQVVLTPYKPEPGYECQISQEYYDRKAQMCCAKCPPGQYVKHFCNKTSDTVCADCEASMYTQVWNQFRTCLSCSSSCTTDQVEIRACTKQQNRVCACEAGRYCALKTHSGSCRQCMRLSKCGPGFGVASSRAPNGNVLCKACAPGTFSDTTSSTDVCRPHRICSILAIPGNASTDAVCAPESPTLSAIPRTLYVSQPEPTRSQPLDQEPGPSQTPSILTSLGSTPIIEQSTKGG
Procedure: as §4, §3

[16] = target: T5, human TNFR2-Fc fusion protein (human, UniProt P20333 23-257); assay: as above
T5 construct: whole entry named; also called huTNFR2
T5 sequence (looked up): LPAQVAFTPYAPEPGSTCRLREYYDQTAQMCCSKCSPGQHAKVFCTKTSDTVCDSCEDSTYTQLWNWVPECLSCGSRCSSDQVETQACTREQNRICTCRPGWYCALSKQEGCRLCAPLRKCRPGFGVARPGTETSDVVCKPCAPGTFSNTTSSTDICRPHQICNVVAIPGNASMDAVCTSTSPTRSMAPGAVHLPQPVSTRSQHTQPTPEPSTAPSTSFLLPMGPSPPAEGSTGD
Procedure: as §4, §3

[17] = target: T2, human TNFR1-Fc fusion protein; assay: QCM, human TNFR1-Fc, moderate receptor density (86 Hz), koff1
Procedure: as §1

[18] = target: T2, human TNFR1-Fc fusion protein; assay: QCM, human TNFR1-Fc, moderate receptor density (86 Hz), KD1
Procedure: as §1

[19] = target: T1, human TNFR1 on cells (HT1080, HeLa, …); assay: cell-based or functional assay; remark: listed apart in the source
[20] = target: T2, human TNFR1-Fc fusion protein; assay: ELISA on coated huTNFR1-Fc, antibody titrated, signal as Binding [%]
Procedure: FIG. 13. […] Increasing concentrations were tested for their binding to huTNFR1-Fc in ELISA (n=3, mean±SD).
as §3

[21] = target: T2, human TNFR1-Fc fusion protein; assay: QCM, human TNFR1-Fc, moderate receptor density (86 Hz), kon1
Procedure: as §1

B1: scFvIZI06.1 (scFv, V domains shown)
VH: QVQLVQSGAEVKKPGSSVKVSCKASGYTFTDFYINWVRQAPGQGLEWIGEIYPYSGHAYYNEKFKARVTITADKSTSTAYMELSSLRSEDTAVYYCARWDFLDYWGQGTTVTVSS
VL: DIVMTQSPLSLPVTPGEPASISCRSSQSLLHSNGNTYLHWYLQKPGQSPQLLIYTVSNRFSGVPDRFSGSGSGTDFTLKISRVEAEDVGVYYCSQSTHVPYTFGGGTKVEIK
notes: Made in the periplasm of E. coli TG1; also called ATROSAB scFv
IC50 (nM), inhibition of TNF-induced IL-8 release from HT1080 cells [1]: 932 nM
IC50 (nM), approximated; inhibition of TNF (0.1 nM) induced IL-8 release [2]: ~200 nM
Kd [3]: 28.9 nM
koff [3]: 0.014 s⁻¹
kon [3]: 500000 M⁻¹ s⁻¹
EC50 [4]: 3.07 nM
koff [5]: 0.00076 s⁻¹
EC50 [6]: 3.8 nM
relative koff (compared with scFvIZI06.1) [7]: 1 relative to scFvIZI06.1
relative EC50 (compared with scFvIZI06.1) [8]: 1 relative to scFvIZI06.1

B2: H398 (antibody, V domains shown)
VH: QVQLQESGAELARPGASVKLSCKASGYTFTDFYINWVKQRTGQGLEWIGEIYPYSGHAYYNEKFKAKATLTADKSSSTAFMQLNSLTSEDSAVYFCVRWDFLDYWGQGTTLTVSS
VL: DIVMTQSPLSLPVSLGDQASISCRSSQSLLHSNGNTYLHWYVQKPGQSPKLLIYTVSNRFSGVPDRFSGSGSGTDFTLKISRVEAEDLGVYFCSQSTHVPYTFGGGTKLEIK
IC50, LT [nM] (inhibition of IL-8 release from HT1080 cells induced by LTα) [9]: 0.65 nM
IC50, TNF [nM] (inhibition of IL-8 release from HT1080 cells induced by 0.1 nM TNF) [9]: 4.1 nM
EC50 [10]: 0.15 nM
Kd [11]: 1.6 nM
koff [11]: 0.00062 s⁻¹
Kd [12]: 0.23 nM

B3: FabATROSAB (Fab, V domains shown)
VH: QVQLVQSGAEVKKPGSSVKVSCKASGYTFTDFYINWVRQAPGQGLEWIGEIYPYSGHAYYNEKFKARVTITADKSTSTAYMELSSLRSEDTAVYYCARWDFLDYWGQGTTVTVSS
VL: DIVMTQSPLSLPVTPGEPASISCRSSQSLLHSNGNTYLHWYLQKPGQSPQLLIYTVSNRFSGVPDRFSGSGSGTDFTLKISRVEAEDVGVYYCSQSTHVPYTFGGGTKVEIKR
notes: Fab of ATROSAB; also called Fab fragment of ATROSAB; ATROSAB Fab
fold weaker binding (higher EC50) compared with Fab13.7 [13]: 8.7 fold
binding result [14]: no binding
binding result [15]: no binding
binding result [16]: no binding
koff [17]: 0.015 s⁻¹
Kd [18]: 30 nM
IC50, Cytotox (nM); inhibition of Kym-1 cell death by 0.01 nM TNF [19]: 37 nM
IC50, IL-6 (nM); inhibition of the response of HeLa cells to 0.1 nM TNF [19]: 145 nM
IC50, IL-8 (nM); inhibition of the response of HT1080 cells to 0.1 nM TNF [19]: 151 nM
IL-6 release (pg/ml), HeLa cells [19]: 179 pg/mL
IL-8 release (pg/ml), HT1080 cells [19]: 128 pg/mL
EC50 (read off the curve) [20]: ~10 nM
kon [21]: 501000 M⁻¹ s⁻¹

B4: scFvT12B (scFv, V domains shown)
VH: HVQLVQSGAEVKKPGSSVKVSCKASGYTFTDFYINWVRQAPGQGLEWIGEIVPSQGEAKYNDKFKARVTITADKSTSTAYMELSSLRSEDTAVYYCARWDFLDYWGQGTTVTVSS
VL: DIVMTQSPLSLPVTPGEPASISCRSSQSLLHSNGNTYLHWYLQKPGQSPQLLIYTVSNRFSGVPDRFSGSGSGTDFTLKISRVEAEDVGVYYCSQGTHVPYTFGGGTKVEIK
IC50 (nM), inhibition of TNF-induced IL-8 release from HT1080 cells [1]: 309 nM
IC50 (nM), approximated; inhibition of TNF (0.1 nM) induced IL-8 release [2]: ~45 nM
Improved (factor of IC50 regarding scFvIG11) [2]: ~6.7 fold
Improved (factor of KD regarding scFvIG11) [3]: 4.1 fold
Improved (factor of koff regarding scFvIG11) [3]: 2 fold
Improved (factor of kon regarding scFvIG11) [3]: 2.1 fold
EC50 [4]: 1.14 nM
EC50 [6]: 2 nM
Improved (factor of EC50 regarding scFvIG11) [6]: 1.3 fold
relative koff (compared with scFvIZI06.1) [7]: 0.25 relative to scFvIZI06.1
relative EC50 (compared with scFvIZI06.1) [8]: 0.017 relative to scFvIZI06.1
